# In paper PMC12012487:
# Several values for one entry are separate records, joined by “and”; a condition that tells them apart may be missing. Equal entries are not always repeated.
# Assays:
# [1] = target: engineered strepII-tagged H77c-derived soluble native-like E1E2 (Hepatitis C virus genotype 1a, isolate H77 (H77c)); experiment: mass photometry
# [2] = target: engineered strepII-tagged H77c-derived soluble native-like E1E2 (hepatitis C virus, strain H77c); experiment: mass photometry
Substance,relative abundance of the 1:1 E1E2:Ab complex [1],relative abundance of the 2:1 E1E2:Ab complex [1],stoichiometry N [1],stoichiometry N [2],further results
AR4A monoclonal antibody,60%,40%,1 E1E2:Ab and 2 E1E2:Ab,–,–
AR4A/AR3C IgG1 hinge bispecific antibody,–,–,–,2 E1E2:Ab,relative abundance of the 2:1 E1E2:Ab complex [2]: 67%; stoichiometry N (E1E2:Ab (2:2 complex)) [2]: 1; stoichiometry N (E1E2:Ab (3:2 complex)) [2]: 1.5
AR4A/AR3C IgG3C- hinge bispecific antibody (CrossMab),–,–,–,1 E1E2:Ab,–
AR3C monoclonal antibody,60%,40%,1 E1E2:Ab and 2 E1E2:Ab,–,–
AR4A/AR3C CamX6 hinge bispecific antibody (CrossMab),–,–,–,1 E1E2:Ab,–
